# Test results taken from article PMC10582078.
# B1: neurofilament-light (NF-L): NF-L4A (protein)
# parent chain: MSSFSYEPYYSTSYKRRYVETPRVHISSVRSGYSTARSAYSSYSAPVSSSLSVRRSYSSSSGSLMPSLENLDLSQVAAISNDLKSIRTQEKAQLQDLNDRFASFIERVHELEQQNKVLEAELLVLRQKHSEPSRFRALYEQEIRDLRLAAEDATNEKQALQGEREGLEETLRNLQARYEEEVLSREDAEGRLMEARKGADEAALARAELEKRIDSLMDEISFLKKVHEEEIAELQAQIQYAQISVEMDVTKPDLSAALKDIRAQYEKLAAKNMQNAEEWFKSRFTVLTESAAKNTDAVRAAKDEVSESRRLLKAKTLEIEACRGMNEALEKQLQELEDKQNADISAMQDTINKLENELRTTKSEMARYLKEYQDLLNVKMALDIEIAAYRKLLEGEETRLSFTSVGSITSGYSQSSQVFGRSAYGGLQTSSYLMSTRSFPSYYTSHVQEEQIEVEETIEAAKAEEAKDEPPSEGEAEEEEKDKEEAEEEEAAEEEEAAKEESEEAKEEEEGGEGEEGEETKEAEEEEKKVEGAGEEQAAKKKD
# B2: neurofilament-light (NF-L): S27A (protein)
# parent chain: B1 parent chain
# B3: neurofilament-light (NF-L): NF-L5A (protein)
# parent chain: B1 parent chain
# B4: neurofilament-light (NF-L): T21A (protein)
# parent chain: B1 parent chain
# B5: neurofilament-light (NF-L): S431A (protein)
# parent chain: B1 parent chain
# B6: neurofilament-light (NF-L): S48A (protein)
# parent chain: B1 parent chain
# B7: neurofilament-light (NF-L): OGT co-expression (protein)
# parent chain: B1 parent chain
# B8: neurofilament-light (NF-L): S34A (protein)
# parent chain: B1 parent chain
# Experiments:
# [1] = IFA of co-assembled filaments, SW13 vim− cells; details: glycan lost; control: WT NF-L
# [2] = IP/IB, baseline; details: glycan lost; control: WT NF-L
# [3] = live-cell imaging, rat hippocampal neuron axons; details: glycan lost; control: WT NF-L
# [4] = differential extraction, NEFL−/− 293T, no OGT; details: glycan lost; control: WT NF-L without OGT
# [5] = differential extraction, urea-fraction NF-L, 293T; details: glycan gained; control: WT NF-L without OGT
# [6] = IFA of filaments, NEFL−/− SH-SY5Y; details: glycan gained; control: WT NF-L without OGT
# [7] = IP/IB; details: glycan gained; control: WT NF-L without OGT
protein,measurement,setting,value
B1,oligomerisation,[1],decreases
same,other: NF-L phosphorylation,[2],increases
same,other: suppression of mitochondrial motility,[3],abolishes
B2,oligomerisation,[4],no change
B3,other: NF-L phosphorylation,[2],increases
B4,oligomerisation,[4],no change
B5,oligomerisation,[4],no change
B6,oligomerisation,[4],no change
B7,oligomerisation,[5],decreases
same,oligomerisation,[6],decreases
same,other: NF-L phosphorylation,[7],decreases
B8,oligomerisation,[4],no change
